Measured values published in patent US20050065324A1.

Key:
[1] = biological target: human platelet thrombospondin (thrombospondin-1) (human) (UniProt P07996); experiment: sandwich ELISA, Ab-4 capture, Ab-8 detection; analyte at 25.00 ng/mL
[2] = biological target: recombinant human TSP fragment of ~140 kDa engineered to lack the N-terminal heparin-binding domain (human); experiment: as above
[3] = biological target: human platelet thrombospondin (thrombospondin-1) (human) (UniProt P07996); experiment: sandwich ELISA, Ab-4 capture, Ab-8 detection; analyte at 12.50 ng/mL
[4] = biological target: recombinant human TSP fragment of ~140 kDa engineered to lack the N-terminal heparin-binding domain (human); experiment: as above
[5] = biological target: human platelet thrombospondin (thrombospondin-1) (human) (UniProt P07996); experiment: sandwich ELISA, Ab-4 capture, Ab-8 detection; analyte at 200.0 ng/mL
[6] = biological target: recombinant human TSP fragment of ~140 kDa engineered to lack the N-terminal heparin-binding domain (human); experiment: as above
[7] = biological target: human platelet thrombospondin (thrombospondin-1) (human) (UniProt P07996); experiment: sandwich ELISA, Ab-4 capture, Ab-8 detection; analyte at 50.00 ng/mL
[8] = biological target: recombinant human TSP fragment of ~140 kDa engineered to lack the N-terminal heparin-binding domain (human); experiment: as above
[9] = biological target: human platelet thrombospondin (thrombospondin-1) (human) (UniProt P07996); experiment: sandwich ELISA, Ab-4 capture, Ab-8 detection; analyte at 100.0 ng/mL
[10] = biological target: recombinant human TSP fragment of ~140 kDa engineered to lack the N-terminal heparin-binding domain (human); experiment: as above
[11] = biological target: human platelet thrombospondin (thrombospondin-1) (human) (UniProt P07996); experiment: sandwich ELISA, Ab-4 capture, Ab-8 detection; analyte at 6.250 ng/mL
[12] = biological target: recombinant human TSP fragment of ~140 kDa engineered to lack the N-terminal heparin-binding domain (human); experiment: as above
[13] = biological target: human platelet thrombospondin (thrombospondin-1) (human) (UniProt P07996); experiment: sandwich ELISA, Ab-4 capture, Ab-8 detection; analyte at 3.125 ng/mL
[14] = biological target: recombinant human TSP fragment of ~140 kDa engineered to lack the N-terminal heparin-binding domain (human); experiment: as above

UniProt P07996, sequence (P07996 19-1170 T523A): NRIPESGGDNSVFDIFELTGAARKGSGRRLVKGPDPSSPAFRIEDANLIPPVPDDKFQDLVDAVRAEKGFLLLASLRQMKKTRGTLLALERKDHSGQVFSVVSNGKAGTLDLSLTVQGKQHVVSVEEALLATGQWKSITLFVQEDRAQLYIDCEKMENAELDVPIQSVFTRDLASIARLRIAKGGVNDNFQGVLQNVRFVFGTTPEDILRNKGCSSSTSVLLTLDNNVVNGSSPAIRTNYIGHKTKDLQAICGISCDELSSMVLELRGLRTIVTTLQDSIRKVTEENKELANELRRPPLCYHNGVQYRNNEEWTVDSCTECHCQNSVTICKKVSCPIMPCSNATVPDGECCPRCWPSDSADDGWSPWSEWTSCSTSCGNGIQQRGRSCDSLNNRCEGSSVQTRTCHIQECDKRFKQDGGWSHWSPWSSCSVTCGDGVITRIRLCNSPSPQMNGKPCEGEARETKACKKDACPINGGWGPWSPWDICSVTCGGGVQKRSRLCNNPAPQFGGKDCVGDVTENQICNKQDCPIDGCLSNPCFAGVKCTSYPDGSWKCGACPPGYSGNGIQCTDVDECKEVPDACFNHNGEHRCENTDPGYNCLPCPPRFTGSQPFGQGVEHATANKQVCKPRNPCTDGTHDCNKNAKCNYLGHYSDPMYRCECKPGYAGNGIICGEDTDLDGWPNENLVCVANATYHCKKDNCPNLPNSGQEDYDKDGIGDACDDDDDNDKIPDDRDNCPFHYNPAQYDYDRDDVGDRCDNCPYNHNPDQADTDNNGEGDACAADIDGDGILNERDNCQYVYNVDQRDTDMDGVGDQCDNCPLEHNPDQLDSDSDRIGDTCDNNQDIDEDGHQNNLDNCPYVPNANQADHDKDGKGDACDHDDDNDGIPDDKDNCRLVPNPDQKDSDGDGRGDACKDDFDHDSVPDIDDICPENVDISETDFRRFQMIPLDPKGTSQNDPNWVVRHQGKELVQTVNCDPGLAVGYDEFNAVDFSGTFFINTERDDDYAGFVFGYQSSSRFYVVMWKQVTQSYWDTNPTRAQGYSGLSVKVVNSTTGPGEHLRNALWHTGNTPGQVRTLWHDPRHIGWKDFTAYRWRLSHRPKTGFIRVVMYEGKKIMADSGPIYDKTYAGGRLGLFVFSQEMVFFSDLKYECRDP

TSP Ab-4 (Clone A6.1) (antibody) was tested, and the ELISA OD-450 [1] was 1.08 OD-450, the ELISA OD-450 [2] was 1.17 OD-450 and the ELISA OD-450 [3] was 0.713 OD-450. For the same substance, the ELISA OD-450 [4] was 0.662 OD-450, the ELISA OD-450 [5] was 2.5 OD-450 and the ELISA OD-450 [6] was 2.56 OD-450. The ELISA OD-450 [7] was 1.57 OD-450, the ELISA OD-450 [8] was 1.8 OD-450 and the ELISA OD-450 [9] was 2.09 OD-450. The ELISA OD-450 [10] was 2.2 OD-450, the ELISA OD-450 [11] was 0.514 OD-450 and the ELISA OD-450 [12] was 0.4 OD-450. It also gave an ELISA OD-450 [13] of 0.345 OD-450 and an ELISA OD-450 [14] of 0.279 OD-450.
